Results taken from patent US7951562B2, “Method for glycosylating hydroxylysine residues in polypeptides or peptides” (Oulun Yliopisto, priority 2000, dated 2011).

B1: LH1: recombinant human lysyl hydroxylase isoform 1, His-tagged (protein, listed as Homo sapiens)
chain: MRPLLLLALLGWLLLAEAKGDAKPEDNLLVLTVATKETEGFRRFKRSAQFFNYKIQALGLGEDWNVEKGTSAGGGQKVRLLKKALEKHADKEDLVILFTDSYDVLFASGPRELLKKFRQARSQVVFSAEELIYPDRRLETKYPVVSDGKRFLGSGGFIGYAPNLSKLVAEWEGQDSDSDQLFYTKIFLDPEKREQINITLDHRCRIFQNLDGALDEVVLKFEMGHVRARNLAYDTLPVLIHGNGPTKLQLNYLGNYIPRFWTFETGCTVCDEGLRSLKGIGDEALPTVLVGVFIEQPTPFVSLFFQRLLRLHYPQKHMRLFIHNHEQHHKAQVEEFLAQHGSEYQSVKLVGPEVRMANADARNMGADLCRQDRSCTYYFSVDADVALTEPNSLRLLIQQNKNVIAPLMTRHGRLWSNFWGALSADGYYARSEDYVDIVQGRRVGVWNVPYISNIYLIKGSALRGELQSSDLFHHSKLDPDMAFCANIRQQDVFMFLTNRHTLGHLLSLDSYRTTHLHNDLWEVFSNPEDWKEKYIHQNYTKALAGKLVETPCPDVYWFPIFTEVACDELVEEMEHFGQWSLGNNKDNRIQGGYENVPTIDIHMNQIGFEREWHKFLLEYIAPMTEKLYPGYYTRAQFDLAFVVRYKPDEQPSLMPHHDASTFTINIALNRVGVDYEGGGCRFLRYNCSIRAPRKGWTLMHPGRLTHYHEGLPTTRGTRYIAVSFVDP
modifications: His6 tag
notes: recombinant human lysyl hydroxylase isoform 1, His-tagged
B2: LH2a: recombinant human lysyl hydroxylase isoform 2, alternatively spliced form a (protein)
chain: ADSEKPSSIPTDKLLVITVATKESDGFHRFMQSAKYFNYTVKVLGQGEEWRGGDGINSIGGGQKVRLMKEVMEHYADQDDLVVMFTECFDVIFAGGPEEVLKKFQKANHKVVFAADGILWPDKRLADKYPVVHIGKRYLNSGGFIGYAPYVNRIVQQWNLQDNDDDQLFYTKVYIDPLKREAINITLDHKCKIFQTLNGAVDEVVLKFENGKARAKNTFYETLPVAINGNGPTKILLNYFGNYVPNSWTQDNGCTLCEFDTVDLSAVDVHPNVSIGVFIEQPTPFLPRFLDILLTLDYPKEALKLFIHNKEVYHEKDIKVFFDKAKHEIKTIKIVGPEENLSQAEARNMGMDFCRQDEKCDYYFSVDADVVLTNPRTLKILIEQNRKIIAPLVTRHGKLWSNFWGALSPDGYYARSEDYVDIVQGNRVGVWNVPYMANVYLIKGKTLRSEMNERNYFVRDKLDPDMALCRNAREMGVFMYISNRHEFGRLLSTANYNTSHYNNDLWQIFENPVDWKEKYINRDYSKIFTENIVEQPCPDVFWFPIFSEKACDELVEEMEHYGKWSGGKHHDSRISGGYENVPTDDIHMKQVDLENVWLDFIREFIAPVTLKVFAGYYTKGFALLNFVVKYSPERQRSLRPHHDASTFTINIALNNVGEDFQGGGCKFLRYNCSIESPRKGWSFMHPGRLTHLHEGLPVKNGTRYIAVSFIDP
modifications: left off: small tags and cut ends
notes: recombinant human lysyl hydroxylase isoform 2, alternatively spliced form a
B3: Mutation 4: human LH3 mutant, amino acids 25-668 normal, amino acids 669-698 modified (protein, listed as Homo sapiens)
chain: SDRPRGRDPVNPEKLLVITVATAETEGYLRFLRSAEFFNYTVRTLGLGEEWRGGDVARTVGGGQKVRWLKKEMEKYADREDMIIMFVDSYDVILAGSPTELLKKFVQSGSRLLFSAESFCWPEWGLAEQYPEVGTGKRFLNSGGFIGFATTIHQIVRQWKYKDDDDDQLFYTRLYLDPGLREKLSLNLDHKSRIFQNLNGALDEVVLKFDRNRVRIRNVAYDTLPIVVHGNGPTKLQLNYLGNYVPNGWTPEGGCGFCNQDRRTLPGGQPPPRVFLAVFVEQPTPFLPRFLQRLLLLDYPPDRVTLFLHNNEVFHEPHIADSWPQLQDHFSAVKLVGPEEALSPGEARDMAMDLCRQDPECEFYFSLDADAVLTNLQTLRILIEENRKVIAPMLSRHGKLWSNFWGALSPDEYYARSEDYVELVQRKRVGVWNVPYISQAYVIRGDTLRMELPQRDVFSGSDTDPDMAFCKSFRDKGIFLHLSNQHEFGRLLATSRYDTEHLHPDLWQIFDNPVDWKEQYIHENYSRALEGEGIVEQPCPDVYWFPLLSEQMCDELVAEMEHYGQWSGGRHEDSRLAGGYENVPTVDIHMKQVGYEDQWLQLLRTYVGPMTESLFPGYHTKARAVMNFVVRYRPDEQPSLRPHHAHPPSPSTLPSTTRAWTMREVAAASCATTV
B4: Mutation 1: human LH3 mutant, amino acids 25-231 normal, amino acids 232-356 modified (frame shift) (protein, listed as Homo sapiens)
chain: SDRPRGRDPVNPEKLLVITVATAETEGYLRFLRSAEFFNYTVRTLGLGEEWRGGDVARTVGGGQKVRWLKKEMEKYADREDMIIMFVDSYDVILAGSPTELLKKFVQSGSRLLFSAESFCWPEWGLAEQYPEVGTGKRFLNSGGFIGFATTIHQIVRQWKYKDDDDDQLFYTRLYLDPGLREKLSLNLDHKSRIFQNLNGALDEVVLSLIGTVCVSGTWPTTRSPLWSMETVPLSCSSTTWETTSPMAGLLREAVASATRTGGHSRGGSLPPGCFWPCLWNSLLRFCPASCSGCYSWTIPPTGSPFSCTTTRSSMNPTSLTPGRSSRTTSQL
B5: Mutation 2: human LH3 mutant, amino acids 25-520 normal, amino acids 521-738 missing (protein, listed as Homo sapiens)
chain: SDRPRGRDPVNPEKLLVITVATAETEGYLRFLRSAEFFNYTVRTLGLGEEWRGGDVARTVGGGQKVRWLKKEMEKYADREDMIIMFVDSYDVILAGSPTELLKKFVQSGSRLLFSAESFCWPEWGLAEQYPEVGTGKRFLNSGGFIGFATTIHQIVRQWKYKDDDDDQLFYTRLYLDPGLREKLSLNLDHKSRIFQNLNGALDEVVLKFDRNRVRIRNVAYDTLPIVVHGNGPTKLQLNYLGNYVPNGWTPEGGCGFCNQDRRTLPGGQPPPRVFLAVFVEQPTPFLPRFLQRLLLLDYPPDRVTLFLHNNEVFHEPHIADSWPQLQDHFSAVKLVGPEEALSPGEARDMAMDLCRQDPECEFYFSLDADAVLTNLQTLRILIEENRKVIAPMLSRHGKLWSNFWGALSPDEYYARSEDYVELVQRKRVGVWNVPYISQAYVIRGDTLRMELPQRDVFSGSDTDPDMAFCKSFRDKGIFLHLSNQHEFGRLLATSR

Tests used:
Format in all cases: biochemical
[1] = test system: galactosylhydroxylysyl residues in calf skin gelatin substrate; test: GGT (glucosyltransferase) activity of recombinant proteins expressed in Sf9 insect cells; details: for GGT activity in cell lysates: Sf9 cells, 72 hours after infection; for GGT activity, Dpm/plate: Sf9 cells transfected by LH3 constructs; for GGT activity, %: relative to nonmutated LH3 construct
Text: The glucosyltransferase activity can be assayed as described in Myllylä et al. (1975). The method is based on the transfer of radioactively (tritium) labelled glucose from UDP-glucose to galactosylhydroxylysyl residues in calf skin gelatin substrate and on the specific assay of the product of the enzyme reaction after alkaline hydrolysis.
(§1) Commercially available baculovirus transfer vector pFastBacI in the BAC-TO-BAC™ expression system (Life technologies, Inc.) was modified to contain human LH1 signal peptide (Hautala et al., 1992) and His6 tag, and BamHI restriction site for insertion of the desired cDNA, nucleotides 289-2455 of LH3 cDNA (SEQ ID NO 6) (Valtavaara et al., 1998). The construct was confirmed by sequencing. The recombinant protein contains His tag at the amino-terminus after signal peptide cleavage. Insect cells were harvested 0-72 hours after infection and homogenized according to the protocol described earlier (Valtavaara et al., 1997).
Human LH1 signal peptide and His6 tag was inserted to the cDNA constructs of LH1 and LH2. The baculovirus transfer vector pFastBacI was modified so that human LH1 signal sequence followed by nine nucleotides of the amino-terminal end was ligated to the His6 tag followed by nucleotides for BamHI restriction site. The human cDNA sequence (LH1 or LH2) (SEQ ID NO 21, 23 and 25) starting from the likely amino-terminal end of the molecule was ligated to the BamHI site of the construct. Two expression constructs were generated for LH2, LH2a and LH2b (SEQ ID NO 23 and 25), both of them covered the nucleotides from 76 to 2267 (Valtavaara et al., 1997). The LH2b construct contained also the alternatively spliced exon sequence (Valtavaara 1999; Yeowell and Walker, 1999) between nucleotides 1500 and 1501 (SEQ ID NO 25). The constructs were confirmed by sequencing. Insect cells were grown and homogenized as described above.
(§2) LH activity was assayed by a method based on the hydroxylation-coupled decarboxylation of 2-oxo(1-^14C)glutarate (Kivirikko and Myllylä 1982), synthetic peptide […] was used as a substrate. GGT activity was assayed as described elsewhere (Myllylä et al. 1975). The method is based on the transfer of radioactively (tritium) labelled glucose from UDP-glucose to galactosylhydroxylysyl residues in calf skin gelatin substrate and on the specific assay of the product of the enzyme reaction after alkaline hydrolysis.

[2] = test system: hydroxylysyl residues in a calf skin gelatin substrate; test: GT (galactosyltransferase) activity of recombinant proteins expressed in E. coli; details: E. coli cell supernatant, FIG. 12
Text: The galactosyltransferase activity can be assayed as described in Myllylä et al. (1975). The method is based on the transfer of radioactively (tritium) labelled galactose from UDP-galactose to hydroxylysyl residues in calf skin gelatin substrate and on the specific assay of the product of the enzyme reaction after alkaline hydrolysis.

[3] = test system: synthetic peptide IKGIKGIKG; test: LH activity of human LH isoforms expressed in E. coli; details: E. coli expression system, data not shown
Text: (§3) The lysyl hydroxylase activity can be assayed by a method based on the hydroxylation-coupled decarboxylation of 2-oxo(1-^14C)glutarate (Kivirikko and Myllylä 1982), synthetic peptide […] was used as a substrate.
PFastBacI constructs for human LH1, LH2a, LH2b and LH3 were cleaved with BamHI and Hind III restriction enzymes and coding regions were subcloned into same site in E. coli expression vector pQE30 containing (His)6 tag at the amino terminus. Insert for C. elegans LH (corresponding to amino acids 14-730 in cDNA) was generated by PCR and ligated into SacI-PstI site of pOE30 vector. Constructs were transformed into E. coli XL1-Blue strain. Cultures were grown to OD600 of 0.6 at 37° C. Protein expression was induced by adding 1 mM IPTG and incubation was proceed at 30° C. for 5 hours. Cells were harvested and stored at −20° C. For activity measurements cell pellet was suspended to lysis buffer (0.4 M NaCl, 0.5% Nonident and 20 mM Tris-HCl pH 7.8, at 20° C.) and incubated in the presence of lysozyme (50 μg/ml), DNAase (10 μg/ml) and RNAase (10 μg g/ml) at room temperature for 30 minutes. Lysis was completed by sonication. Cell debris was pelleted and supernatant was used in the measurements.

[4] = test system: hydroxylysyl residues in a calf skin gelatin substrate; test: GT activity of recombinant proteins expressed with baculovirus vector in Sf9 cells; details: baculovirus vector in insect cells, not shown
Experimental: Baculovirus transfer vector pFastBacI in the BAC-TO-BAC™ expression system was used to produce LH3 protein in Sf9 cells. The cDNA construct is in Example 1. The recombinant protein contains the His tag at the amino terminus after signal peptide cleavage. The cells were homogenized as described elsewhere (Valtavaara et al. 1997).
GT and GGT activities were measured by a method based on the transfer of radioactively (tritium)-labeled sugar from UDP-sugar to hydroxylysyl or galactosylhydroxylysyl residues in a calf skin gelatin substrate, respectively (Myllylä et al. 1975). The specific detection of the reaction products was performed after alkaline hydrolysis.

[5] = test system: synthetic peptide IKGIKGIKG; test: LH (lysyl hydroxylase) activity of LH3 constructs expressed in Sf9 cells; details: for LH3 activity, Dpm/plate: Sf9 cells transfected by LH3 constructs; for LH3 activity, %: relative to nonmutated LH3 construct
Text: as §3, §1, §2

Row | Molecule | GGT activity in cell lysates [1] | generation of GT activity [2] | LH activity [3] | generation of GT activity [4] | GGT activity, Dpm/plate [1] [Dpm/plate] | GGT activity, % [1] [%] | LH3 activity, Dpm/plate [5] [Dpm/plate] | LH3 activity, % [5] [%]
1 | B1 | none of these recombinant proteins had detectable GGT activity | LH3 was the only one being able to generate GT activity | no LH activity can be found | did not generated GT activity |  |  |  | 
2 | B2 | none of these recombinant proteins had detectable GGT activity | LH3 was the only one being able to generate GT activity | no LH activity can be found | did not generated GT activity |  |  |  | 
3 | B3 |  |  |  |  | 360000 | 47 | <300 | <5
4 | B4 |  |  |  |  | 650 | 0.1 | <300 | <5
5 | B5 |  |  |  |  | 180000 | 23 | <300 | <5
